Data: PMC2809091, “Dissociation of the Octameric Enolase from S. Pyogenes - One Interface Stabilizes Another” (PLoS ONE, 2010)

Biological target: the molecule itself
Experiment: AUC; sedimentation velocity, 35,000 rpm, 15°C; 2.7 µM enolase (subunits) in TME buffer (50 mM Tris/HCl, 1 mM Mg(OAc)2, 0.1 mM EDTA, pH 7.4) without NaClO4; c(s) analysis (SEDFIT), mass also from DLS radius and DCDT+; octamer

B1: wild type octameric enolase from S. pyogenes (enzyme, UniProt P69949 1-435, looked up)
chain: MSIITDVYAREVLDSRGNPTLEVEVYTESGAFGRGMVPSGASTGEHEAVELRDGDKSRYLGLGTQKAVDNVNNIIAEAIIGYDVRDQQAIDRAMIALDGTPNKGKLGANAILGVSIAVARAAADYLEVPLYTYLGGFNTKVLPTPMMNIINGGSHSDAPIAFQEFMIMPVGAPTFKEGLRWGAEVFHALKKILKERGLVTAVGDEGGFAPKFEGTEDGVETILKAIEAAGYEAGENGIMIGFDCASSEFYDKERKVYDYTKFEGEGAAVRTSAEQVDYLEELVNKYPIITIEDGMDENDWDGWKVLTERLGKRVQLVGDDFFVTNTEYLARGIKENAANSILIKVNQIGTLTETFEAIEMAKEAGYTAVVSHRSGETEDSTIADIAVATNAGQIKTGSLSRTDRIAKYNQLLRIEDQLGEVAQYKGIKSFYNLKK
notes: enolase (EC 4.2.1.11) of Streptococcus pyogenes; no removal of the His tag is described; also called wild type enolase; wild type enzyme; source: E. coli BL21(DE3), pET-14b, purified (Ni-NTA, dialysis, (NH4)2SO4 precipitation)
B1 was tested, and the “stoichiometry N” value was 8.
